Data on one molecule can be found in article doi:10.1101/2020.12.01.406983 (bioRxiv, 2020).

This assay deals with canine parvovirus (CPV) capsid (Canine parvovirus type 2, strain CPV-d …, UniProt P17455). Description: cryo-EM structure.
Sequence of canine parvovirus (CPV) capsid (P17455 whole entry, looked up): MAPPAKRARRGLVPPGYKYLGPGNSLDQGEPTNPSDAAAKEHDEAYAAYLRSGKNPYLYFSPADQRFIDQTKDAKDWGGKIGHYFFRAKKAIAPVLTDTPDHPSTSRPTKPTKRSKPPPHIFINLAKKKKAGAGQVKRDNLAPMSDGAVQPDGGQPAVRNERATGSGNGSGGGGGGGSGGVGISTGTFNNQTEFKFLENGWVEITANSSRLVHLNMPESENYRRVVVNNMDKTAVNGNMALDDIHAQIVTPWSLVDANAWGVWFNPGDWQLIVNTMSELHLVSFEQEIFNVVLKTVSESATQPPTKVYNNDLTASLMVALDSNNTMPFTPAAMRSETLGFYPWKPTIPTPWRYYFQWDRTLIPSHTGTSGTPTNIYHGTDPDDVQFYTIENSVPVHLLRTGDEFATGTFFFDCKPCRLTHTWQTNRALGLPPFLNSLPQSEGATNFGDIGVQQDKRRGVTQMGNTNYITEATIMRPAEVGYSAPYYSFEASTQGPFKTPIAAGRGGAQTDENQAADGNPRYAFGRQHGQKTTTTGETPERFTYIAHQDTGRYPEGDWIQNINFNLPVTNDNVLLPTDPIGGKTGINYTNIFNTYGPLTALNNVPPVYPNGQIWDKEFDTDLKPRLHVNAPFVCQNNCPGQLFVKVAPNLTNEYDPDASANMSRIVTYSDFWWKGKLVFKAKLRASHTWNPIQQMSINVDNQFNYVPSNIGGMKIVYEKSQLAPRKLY

B1: Fab of MAb14 (Fab 14) (Fab, V domains shown)
VH: AVHLQGTELVKPGASAGVKLSCKASGYTFTNYDMNWVRQRPEQGLEWIGWIFPGDGSTRYNEKFKGKATLTTDKSSSTAYQLNRLTSEDSAVYFCARRGSHGSYSFAYWGQGTLVTVSG
VL: DIVMTQSHKFMSTSVGDRVSITCKASQDVNTALAWYQQIPGQSPKLLIYSASNRYTGVPDRFTASGSGTDFTFTISSVQAEDLALYYCQQHYTTPWTFGGGTKLEIK
Take B1: the “stoichiometry N” value is ~60 Fab 14 molecules per capsid.
